Test results: the supplement of paper PMC9170038

Tested on: MS2 coat protein
Test: apparent KD of MS2 coat protein; designed switch direction (-1 OFF switch, 1 ON switch): -1; higher = weaker reporter binding
Summary of the method: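 Transcription of designed RNA switches on Illumina chips was done by stalled E. coli RNA polymerase. SNAP-549-labelled MS2 coat protein was then titrated in doubling steps from 0.7 or 1.5 nM to 3 µM, with steps of 0.8–1.5 h at the lowest and 10–20 min at the highest concentration. The per-design median over clusters of curve-fitted normalised fluorescence is reported as apparent KD.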

[1] = input ligand: microRNA oligo, concentration not stated
[2] = Eterna round: R95, input ligand: FMN 200 uM
[3] = Eterna round: R95, input ligand: microRNA oligo, concentration not stated
[4] = Eterna round: R95, input ligand: none

| Sequence | apparent KD of MS2 coat protein (input ligand: FMN 200 uM) [nM] | apparent KD of MS2 coat protein (input ligand: none) [nM] | apparent KD of MS2 coat protein [3] [nM] | further results |
| --- | --- | --- | --- | --- |
| GUGAAGUAAGGAUAUACAUGAGGAUCACCCAUGUGGAGGAAGGUGAUGGGAGUAGGUAGUAGAAGGUACGAGGA [JR_Exclu3_Sub064] (Eterna round: R96, puzzle: Exclusion 3) | 304 | 207 |  | apparent KD of MS2 coat protein [1]: 134 nM |
| GUGAAGUAAGGAUAUACAUGAGGAUCACCCAUGUGGAGGAAGGUGAUGGGAGUAGGUAGUAGAAGGUACGAGGA [JR_Exclu3_Sub064] (puzzle: Exclusion 3) |  |  | 159 | apparent KD of MS2 coat protein [2]: 115 nM; apparent KD of MS2 coat protein [4]: 201 nM |
| GUGAAGUGAGGAUAUACGAGAGAGGCUGAACCUGGAGAGAAGUAGAAGGCACAUGAGGAUCACCCAUGUUAGGA [JR_Exclu4_Sub021] (puzzle: Exclusion 4) |  |  | 38 |  |
| GUGAGACAUGAGGAUCACCCAUGUGAGGAUAUCCGAAGGACCAAAUUAAGAAUAGAAGGGAGAAGGCACAUAAA [Exclusion 1 V6] (puzzle: Exclusion 1) |  |  | 68.4 | apparent KD of MS2 coat protein [2]: 128 nM; apparent KD of MS2 coat protein [4]: 157 nM |
| GUGAGCAGACGGAGAUCCUACAUGAGGAUCACCCAUGUCUCACUAGCUUUUUGCUCGUCUUAUCCUCCUCUGUUCAC [Elimod 24 - Jieux - Sensor, turn-off variant 1] (Eterna round: R97, puzzle: Sensor, turn-off variant 1) | 21.8 | 21.6 |  |  |
| GUGAUCUAUCAUGUAAUAAACAUGAGGAUCACCCAUGUAGACAAGUUUUUUGCUCGUCUUAUAAUAAGAUAGAUCAC [Antenna 15 - Jieux - Sensor, turn-off variant 1] (Eterna round: R97, puzzle: Sensor, turn-off variant 1) | 16.3 | 15.9 |  |  |
| GUGCAAUGAGGAUAUACGUUGGUGAACAUCUGUGUGCUCCUACAUGAGGAUCACCCAUGUAGAAGGCAUGUCAC [LRO-Excl2-18] (Eterna round: R96, puzzle: Exclusion 2) | 18.3 | 14.1 |  | apparent KD of MS2 coat protein [1]: 10.8 nM |
| GUGCAAUGAGGAUAUACGUUGGUGAACAUCUGUGUGCUCCUACAUGAGGAUCACCCAUGUAGAAGGCAUGUCAC [LRO-Excl2-18] (puzzle: Exclusion 2) |  |  | 11.3 |  |
| GUGCCGCGAGGAUAUACAGACGGGUCCAGUACGUGUCUGGGACUUGAGGAUCACCCAAGUAGAAGGCGUCUCAG [salish99_ex2_r4_613] (Eterna round: R97, puzzle: Exclusion 2) | 39.9 | 44.6 |  |  |
| GUGCGACAUGAGGAUCACCCAUGUCAGGAUAUAUAGAACGAUAACGAAAUCGUUAUCGGUAGAAGGGACGGUGA [Eternabot (L1) Solution 48] (Eterna round: R97, puzzle: Exclusion 1) | 18.6 | 21.4 |  |  |
| GUGCGCGGCUAGGAUAUUGUGGGUUUUUGUCUGCGAGAAGGAGCCACAUGAGGAUCACCCAUGUGGUGUUGCUC [salish99_ex6_r4_013] (Eterna round: R97, puzzle: Exclusion 6) | 220 | 63.6 |  |  |
| GUGGUACAUGAGGAUCACCCAUGUUAGGAUAUCGCGUGAGGUUUUACUUACACACACACGAGAAGGGACGUCUU (puzzle: Exclusion 1) |  |  | 43.2 |  |
| GUGGUACAUGAGGAUCACCCAUGUUAGGAUAUCGCGUGAGGUUUUACUUCCGCACGCGCGAGAAGGGACGUCUU (puzzle: Exclusion 1) |  |  | 28.9 |  |
| GUGGUACAUGAGGAUCACCCAUGUUAGGAUAUCGCGUGGUUUUUUGCGGCCGCGCGCGCGAGAAGGGACGUCUU (puzzle: Exclusion 1) |  |  | 29.3 |  |
| GUGUACAGAGGAUAUAUAUGGGCAUGGAAACAUGCAACUUCACAUGAGGAUCACCCAUGUAGAAGGCUGUACAC [Ex2: 712] (Eterna round: R96, puzzle: Exclusion 2) | 332 | 28.9 |  | apparent KD of MS2 coat protein [1]: 23 nM |
| GUGUACAGAGGAUAUGCACGAGUAGUUACGAAAGUAACUGCACAUGAGGAUCACCCAUGUAGAAGGCUGUACAC [Dot plot directed v4] (puzzle: Exclusion 2) |  |  | 15.4 |  |
| GUGUACGGAGGAUAUAUAUGGGCAGGCUGACCUGCAGCUUCACAUGAGGAUCACCCAUGUAGAAGGCUGUACAC [Mat - Exclusion 2 - Mod of Hyphema - D98] (puzzle: Exclusion 2) |  |  | 33.2 |  |
| GUGUAGAUAGGAUAUGCAUAGAGCUUACGAAAGUAGGCUCUACAUGAGGAUCACCCAUGUAGAAGGGUCUACAC [Dot plot directed A v15] (puzzle: Exclusion 2) |  |  | 25 |  |
| GUGUAGUCAGGAUAUACAUAGGAAGAGAAUAUAAUAUAAGUACAUGAGGAUCACCCAUGUAGAAGGGACAGUGU [Excluse me!! 8 - Jieux - Exclusion 2] (puzzle: Exclusion 2) |  |  | 29.4 |  |

| Sequence | apparent KD of MS2 coat protein (input ligand: FMN 200 uM) [nM] | apparent KD of MS2 coat protein (input ligand: none) [nM] | apparent KD of MS2 coat protein [3] [nM] | further results |
| --- | --- | --- | --- | --- |
| GUGUGCACGCUGCGAUCCUACAUGAGGAUCACCCAUGUGGUCUGGUGGCGUGGGUCACCGGACUUGGCUCGUCUUGA [salish99_S_TOV1_R5_069] (Eterna round: R97, puzzle: Sensor, turn-off variant 1) | 121 | 118 |  |  |
| GUGUGCAGAGGAUAUACAGAGGAAAAGAAAAGAGAAGGGAGACAUGAGGAUCACCCAUGUAGAAGGCUGAGUGU [Excluse me!! 20 - Jieux - Exclusion 2] (puzzle: Exclusion 2) |  |  | 63.4 |  |
| GUUAAACAUGAGGAUCACCCAUGUAAGGAUAUGCUGAGGUAGAGAUGAAGUGAAUGAAGCAGAAGGUACAAAUG [Mat - Mod of JL D64] (puzzle: Exclusion 1) |  |  | 83.2 | apparent KD of MS2 coat protein [2]: 51.5 nM; apparent KD of MS2 coat protein [4]: 113 nM |
| GUUAACGCAGGAUAUUAGUACAUGUACAUGAGGAUCACCCAUGUUUAUUGGGUCUAAGAAUAAGAAGGGCGAUGAA [JR_Ex5_Sub006] (Eterna round: R97, puzzle: Exclusion 5) | 402 | 631 |  |  |
| GUUAAGUGAGGAUAUGGUGAGUAGUGCCAGAGCGCUGCUCACCAGAAGGCACAUGAGGAUCACCCAUGUAUAGC [Mat - Exclusion 4 - Mod of JL - D15] (puzzle: Exclusion 4) |  |  | 13 |  |
| GUUAAUUGUGACAUGGGUGACAUGAGGAUCACCCAUGUCACAAGCUUUUUGCUCGUCUUAUAAUUAACCCAUGUCAC [Stov1/13-A2] (Eterna round: R97, puzzle: Sensor, turn-off variant 1) | 29.1 | 41.2 |  |  |
| GUUAGUUAAGGAUAUACAGGGAGCCGCGGCGUCUCGCCGCAACAUGAGGAUCACCCAUGUAGAAGGUGGCCAUU [JL ViennaUCT Enbibi mod 2] (puzzle: Exclusion 2) |  |  | 101 |  |
| GUUAUGUCAGGAUAUGCUAAUGAUGAGUGAUCAGACAUGAUGUAGAAGGGACAUGAGGAUCACCCAUGUAAUAU [EX4 #8] (Eterna round: R97, puzzle: Exclusion 4) | 114 | 122 |  |  |
| GUUAUUAAUGUAGGAUAUGCAAGGCGAACCUAAGCAGAAGGACAUGAGGAUCACCCAUGUAUUGCGGUCUGCGUUCAGAUCGCU [salish99_ExNG1_r4_012] (Eterna round: R96, puzzle: Exclusion NG 1) | 39.9 | 19.4 |  | apparent KD of MS2 coat protein [1]: 15.8 nM |
| GUUCACGUAGGAUAUACGGUUGGUGUGCGCGAAGGCCUUUGACAUGAGGAUCACCCAUGUAGAAGGACGAUGAA [EX2 C.24] (Eterna round: R97, puzzle: Exclusion 2) | 32.1 | 31 |  |  |
| GUUCCACGAGGAUAUGAGGGCAACUACAUGAGGAUCACCCAUGUGAGCGAUCCUCAGAAGUCAGAAGGCGUGGAGA [Eternabot (L2) Solution 77] (Eterna round: R97, puzzle: Exclusion 5) | 63.7 | 70.4 |  |  |
| GUUGGAUGAGGAUAUCGAGGUUAGUACAUGAGGAUCACCCAUGUUAUCCAGGUGUCGGUUCGAGAAGGCAUUGGAC [LRO-Ex5-14] (Eterna round: R96, puzzle: Exclusion 5) | 104 | 34.7 |  | apparent KD of MS2 coat protein [1]: 27.8 nM |
| GUUGGAUGAGGAUAUCGAGGUUAGUACAUGAGGAUCACCCAUGUUAUCCAGGUGUCGGUUCGAGAAGGCAUUGGAC [LRO-Ex5-14] (puzzle: Exclusion 5) |  |  | 32.9 |  |
| GUUGUCCUUGUAAGGAUAUCCGGAUAGAGCAUAUCGGAGAAGGUACAUGAGGAUCACCCAUGUCUCACCGUGCU [Eternabot (L1) Solution 95] (Eterna round: R97, puzzle: Brourd's mod of Exclusion 4) | 14.4 | 14.3 |  |  |
| GUUUAGUGAGGAUAUGUGGCUUCGAUCGUGAGAUCGAGGCUACAGAAGGCACAUGAGGAUCACCCAUGUUCCUA [salish99_ex4_r4_107] (Eterna round: R97, puzzle: Exclusion 4) | 87.7 | 16.5 |  |  |
| GUUUCACAUGAGGAUCACCCAUGUGAGGAUAUCAAUUUGUUAACCGUAGUUAAUAGAUUGAGAAGGCGCGUGAU [JRxlusion 2- Jieux - Exclusion 1] (Eterna round: R97, puzzle: Exclusion 1) | 64.5 | 49 |  |  |
| GUUUCACAUGAGGAUCACCCAUGUGAGGAUAUGCAUUUGUUAACCGUAGUUAAUAGAUGCAGAAGGCGCGUGAU [JRxlusion 5 - Jieux - Exclusion 1] (Eterna round: R97, puzzle: Exclusion 1) | 69.8 | 65 |  |  |
| GUUUGACAUGAGGAUCACCCAUGUGAGGAUAUACGAUUAGCUGCUAGGUAGUUAGUAUGUAGAAGGUGCGUGUU [EX1 #69] (Eterna round: R97, puzzle: Exclusion 1) | 97.9 | 117 |  |  |
